From publication PMC8123127, “Structural Bases for the Synergistic Inhibition of Human Thymidylate Synthase and Ovarian Cancer Cell Growth by Drug Combinations” (Cancers, 2021)

Experiments:
[1] = substrate: Nc1nc2c(c(=O)[nH]1)N1CN(c3ccc(C(=O)N[C@@H](CCC(=O)O)C(=O)O)cc3)CC1CN2; assay: purified protein; details: dUMP cofactor site in the catalytic pocket; varied: cofactor
[2] = substrate: O=c1ccn([C@H]2C[C@H](O)[C@@H](COP(=O)(O)O)O2)c(=O)[nH]1; assay: purified protein; assay type: biochemical, Homo sapiens; details: mTHF substrate site in the catalytic pocket

B1: human thymidylate synthase (hTS) (Homo sapiens) (protein)
chain: MPVAGSELPRRPLPPAAQERDAEPRPPHGELQYLGQIQHILRCGVRKDDRTGTGTLSVFGMQARYSLRDEFPLLTTKRVFWKGVLEELLWFIKGSTNAKELSSKGVKIWDANGSRDFLDSLGFSTREEGDLGPVYGFQWRHFGAEYRDMESDYSGQGVDQLQRVIDTIKTNPDDRRIIMCAWNPRDLPLMALPPCHALCQFYVVNSELSCQLYQRSGDMGLGVPFNIASYALLTYMIAHITGLKPGDFIHTLGDAHIYLNHIEPLKIQLQREPRPFPKLRILRKVEKIDDFKAEDFQIEGYNPHPTIKMEMAV
notes: His6-tag protein (non-cleavable N-terminal His6-tag)
- Km [1]: 5 µM
- Km [2]: 10 µM
